Here are results for two molecules from patent publication US20140186363A1 (UNIVERSITY OF ZURICH, published 2014).

The target in one experiment is T1, MAGEA3 (human, UniProt P43357 1-314).
T1 construct: also called recombinant MAGEA3; MAGEA3-protein
Description: ELISA, plate coated with recombinant MAGEA3, serial dilution of antibody [Figure 4].

A further experiment concerns the target T2, MAGEA3 peptide no 12.
T2 construct: also called MAGEA3 aa 111-130
T2 peptide: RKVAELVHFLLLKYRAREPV
Description: peptide ELISA (coated 20mer). How it is done: (§1) 20mer peptides spanning the entire MAGEA3 protein with 10 aa overlaps shared by each adjacent peptide (Peptides&Elephants, Nuthetal, Germany) were used to coat Maxisorp ELISA plates (Nunc, Rochester, N.Y.). As control a 20mer peptide representing amino acids 40-21 from the NY-ESO-1 protein was used (rev). The numbering of amino acids of MAGEA3 is based on SEQ ID No:41.
(§2) Human recombinant antibody was used at a concentration of 1 μg/ml. Bound human antibody was detected using horseradish peroxidase-conjugated goat anti-human IgG Fc-gamma specific antibodies (Jackson ImmunoResearch, Europe Ltd., Cambridgeshire, UK).

A further experiment addresses T3, MAGEA3 peptide no 24.
T3 construct: also called MAGEA3 aa 231-250
T3 peptide: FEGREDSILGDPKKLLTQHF
The experiment is described as follows: peptide ELISA (coated 20mer). How it is done: as §1, §2

The target of a further experiment is T4, MAGEA3 peptide no 6.
T4 construct: also called MAGEA3 aa 51-70
T4 peptide: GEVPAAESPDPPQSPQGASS
The experiment is described as follows: peptide ELISA (coated 20mer). As for the experimental part: as §1, §2
For orientation: ELISA stands for enzyme-linked immunosorbent assay.

The next experiment deals with T5, MAGEA3 peptide no 7.
T5 construct: also called MAGEA3 aa 61-80
T5 peptide: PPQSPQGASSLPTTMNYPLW
The experiment is described as follows: peptide ELISA (coated 20mer). As for the experimental part: as §1, §2

A further experiment addresses T6, MAGEA3 peptide no 26.
T6 construct: also called MAGEA3 aa 251-270
T6 peptide: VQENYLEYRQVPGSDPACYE
The experiment is described as follows: peptide ELISA (coated 20mer). As for the experimental part: as §1, §2

The target in another experiment is T7, MAGEA3 peptide no 29.
T7 construct: also called MAGEA3 aa 281-300
T7 peptide: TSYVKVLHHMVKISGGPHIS
The experiment is described as follows: peptide ELISA (coated 20mer). How it is done:
as §1, §2

Another experiment concerns the target T8, MAGEA3 peptide no 20.
T8 construct: also called MAGEA3 aa 191-210
T8 peptide: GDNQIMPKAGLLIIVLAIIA
Description: peptide ELISA (coated 20mer). How it is done:
as §1, §2

A further experiment deals with T9, MAGEA3 peptide no 27.
T9 construct: also called MAGEA3 aa 261-280
T9 peptide: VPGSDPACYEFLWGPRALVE
Description: peptide ELISA (coated 20mer). As for the experimental part: as §1, §2

A further experiment concerns the target T10, MAGEA3 peptide no 2.
T10 construct: also called MAGEA3 aa 11-30
T10 peptide: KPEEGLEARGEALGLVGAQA
Description: peptide ELISA (coated 20mer). How it is done:
as §1, §2

In the next experiment the target is T11, MAGEA3 peptide no 23.
T11 construct: also called MAGEA3 aa 221-240
T11 peptide: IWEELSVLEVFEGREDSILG
The experiment is described as follows: peptide ELISA (coated 20mer). As for the experimental part: as §1, §2

The next experiment concerns the target T12, MAGEA3 peptide no 17.
T12 construct: also called MAGEA3 aa 161-180
T12 peptide: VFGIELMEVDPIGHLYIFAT
Description: peptide ELISA (coated 20mer). As for the experimental part: as §1, §2

The target of another experiment is T13, MAGEA3 peptide no 30.
T13 construct: also called MAGEA3 aa 291-310
T13 peptide: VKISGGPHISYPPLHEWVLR
Description: peptide ELISA (coated 20mer). As for the experimental part:
as §1, §2

Another experiment addresses T14, MAGEA3 peptide no 19.
T14 construct: also called MAGEA3 aa 181-200
T14 peptide: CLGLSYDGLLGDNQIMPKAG
Description: peptide ELISA (coated 20mer). As for the experimental part:
as §1, §2

For a further experiment, the target named is T15, MAGEA3 peptide no 25.
T15 construct: also called MAGEA3 aa 241-260
T15 peptide: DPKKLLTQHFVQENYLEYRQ
Description: peptide ELISA (coated 20mer). As for the experimental part:
as §1, §2

A further experiment has as its target T16, MAGEA3 peptide no 11.
T16 construct: also called MAGEA3 aa 101-120
T16 peptide: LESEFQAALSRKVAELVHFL
Description: peptide ELISA (coated 20mer). How it is done:
as §1, §2

B1: 34G9 (antibody, V domains shown)
VH: EVQLEESGGDLVQPGGSLRLSCAASGFTFSHYWMHWVRQAPGKGLVWVSRINSDGSSTSYADSVKGRFTISRDNAKNTLYLQMNSLRAEDTAVYYCARIGSDGYNYDFWGQGTLVTVSS
VL: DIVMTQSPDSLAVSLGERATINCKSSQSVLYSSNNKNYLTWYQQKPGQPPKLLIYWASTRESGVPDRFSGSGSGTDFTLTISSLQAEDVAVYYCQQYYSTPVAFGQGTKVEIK
notes: Patient-derived human antibody made recombinantly; also called human monoclonal antibody 34G9
A word on the EC50: it is the concentration needed to bring the measured effect to its halfway point. The EC50 (read off the curve) is the concentration giving half of the maximal effect. As to B1, in the experiment with MAGEA3, the EC50 came to 0.045 nM and the 50% effective concentration (EC50 (read off the curve)) was about 0.04 nM.

B2: 32H2 (antibody, V domains shown)
VH: QVQLVESGGGVVQPGRSLRLSCAASGFTFSSNAMHWVRQAPGKGLEWVAVISHDGSNKYYADSVKGRFTISRDNSKNTLYLQMNSLRAEDTAVYYCARDGSGSYFNLDYWGQGTLVTVSS
VL: QSALTQPASVSGSPGQSITISCTGTSSDVGGYNYVSWYQQHPGKAPKLMIYEVSNRPSGVSNRFSGSKSGNTASLTISGLQAEDEADYYCSSYTSSSTLVFGTGTKVTVL
notes: Patient-derived human antibody made recombinantly; also called human monoclonal antibody 32H2
As to B2, the binding result with MAGEA3 peptide no 12, with MAGEA3 peptide no 24, with MAGEA3 peptide no 6, with MAGEA3 peptide no 7, in the experiment with MAGEA3 peptide no 26 and in the experiment with MAGEA3 peptide no 29 was “no binding (tested: 1 µg/ml)” throughout. Also, the binding result with MAGEA3 peptide no 20, in the experiment with MAGEA3 peptide no 27, in the experiment with MAGEA3 peptide no 2, with MAGEA3 peptide no 23, in the experiment with MAGEA3 peptide no 17 and with MAGEA3 peptide no 30 was “no binding (tested: 1 µg/ml)” throughout. For the same molecule, the binding result in the experiment with MAGEA3 peptide no 19, with MAGEA3 peptide no 25 and with MAGEA3 peptide no 11 was “no binding (tested: 1 µg/ml)” each time.
